The values that follow come from patent publication US20260167710A1.

For assay [1], the target named is ST2-his (human) (UniProt Q01638). Nature of the assay: BLI (Octet RED384), ST2-his on anti-his sensors, IL-33 100 nM, steady state fit, average of n=2; not at equilibrium, for comparison only.
Assay [2] has the same target. Nature of the assay: BLI (Octet RED384), ST2-his on anti-his sensors, IL-33 pre-mixed with ten-fold excess of 22A06-458 (the complex binds ST2), steady state fit, average of n=2.
Assay [3] has the same target. In words: BLI (Octet RED384), ST2-his on anti-his sensors, IL-33 pre-mixed with the anti IL-33 control antibody (the complex binds ST2), steady state fit, average of n=2.

Sequence of ST2-his (human) (Q01638 other isoform, or with tags, fused parts or gaps limits assumed): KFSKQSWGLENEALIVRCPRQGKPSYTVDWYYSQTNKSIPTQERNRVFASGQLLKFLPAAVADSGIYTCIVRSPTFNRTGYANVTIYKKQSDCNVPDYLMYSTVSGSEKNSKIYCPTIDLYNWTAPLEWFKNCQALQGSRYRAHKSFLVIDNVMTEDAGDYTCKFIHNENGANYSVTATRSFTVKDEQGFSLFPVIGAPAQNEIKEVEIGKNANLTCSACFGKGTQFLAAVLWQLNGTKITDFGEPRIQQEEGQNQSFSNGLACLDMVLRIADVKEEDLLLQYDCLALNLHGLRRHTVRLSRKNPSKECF

B1: human IL-33 (ligand, not shown: small tags and cut ends)
chain: ITGISPITEYLASLSTYNDQSITFALEDESYEIYVEDLKKDEKKDKVLLSYYESQHPSNESGDGVDGKMLMVTLSPTKDFWLHANNKEHSVELHKCEKPLPDQAFFVLHNMHSNCVSFECKTDPGVFIGVKDNHLALIKVDSSENLCTENILFKLSET
modifications: Biotinylated in Example 2; the site is not stated.
For B1, the Kd with ST2-his (human) [1] stood at 7.2 nM; with ST2-his (human) [2], 11.5 nM; in the assay with ST2-his (human) [3], 2.4 nM.
